Results reported in PMC5645467, “Three-dimensional context rather than NLS amino acid sequence determines importin α subtype specificity for RCC1” (Nature Communications, 2017).

T1: GST-ΔIBB-importin α3 (human, UniProt O00629 59-521)
T1 construct: human importin α3 lacking the N-terminal IBB domain; also called GST-tagged importin α3 (lacking the IBB); source: E. coli BL21(DE3) AI or BL21(DE3), pGEX-6P, purified (glutathione resin); not shown: GST, N-terminal, kept
T1 sequence (looked up): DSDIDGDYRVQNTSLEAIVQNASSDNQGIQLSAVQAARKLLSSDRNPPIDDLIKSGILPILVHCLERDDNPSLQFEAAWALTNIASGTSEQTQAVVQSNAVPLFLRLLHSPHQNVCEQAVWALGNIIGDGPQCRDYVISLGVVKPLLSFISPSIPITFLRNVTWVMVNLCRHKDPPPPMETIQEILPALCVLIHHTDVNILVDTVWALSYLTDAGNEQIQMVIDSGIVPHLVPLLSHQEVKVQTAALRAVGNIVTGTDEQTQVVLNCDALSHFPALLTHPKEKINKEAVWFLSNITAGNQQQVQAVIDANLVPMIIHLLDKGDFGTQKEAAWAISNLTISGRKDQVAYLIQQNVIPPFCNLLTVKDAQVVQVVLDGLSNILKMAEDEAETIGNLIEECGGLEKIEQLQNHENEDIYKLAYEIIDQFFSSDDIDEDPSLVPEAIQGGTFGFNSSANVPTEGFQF

T2: ΔIBB-Kap60 (co-expressed with yeast GST-RCC1) (Saccharomyces cerevisiae, UniProt Q02821 66-542)
T2 construct: yeast importin α Kap60 lacking the N-terminal IBB domain; the methods say ΔIBB-Kap60; source: E. coli BL21-AI, co-expressed with yeast GST-RCC1, purified as complex (glutathione beads, PreScission, SEC)
T2 sequence (looked up): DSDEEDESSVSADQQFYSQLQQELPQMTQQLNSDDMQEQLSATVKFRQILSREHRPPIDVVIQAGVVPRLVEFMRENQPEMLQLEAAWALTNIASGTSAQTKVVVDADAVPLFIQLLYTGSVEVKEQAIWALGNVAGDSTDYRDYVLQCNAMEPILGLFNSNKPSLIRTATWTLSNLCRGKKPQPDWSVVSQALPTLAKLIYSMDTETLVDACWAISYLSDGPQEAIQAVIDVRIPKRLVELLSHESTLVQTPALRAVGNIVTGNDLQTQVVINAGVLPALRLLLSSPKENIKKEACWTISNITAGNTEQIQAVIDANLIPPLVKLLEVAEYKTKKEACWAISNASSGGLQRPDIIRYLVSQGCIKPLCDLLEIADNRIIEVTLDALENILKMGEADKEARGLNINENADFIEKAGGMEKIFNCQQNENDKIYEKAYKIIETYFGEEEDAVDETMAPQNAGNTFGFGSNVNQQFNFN

T3: GST-RCC1 (full-length human RCC1, wild type) (human, UniProt P18754 1-421)
T3 construct: human RCC1, predominant isoform RCC1α, synthetic gene (GenScript); β-propeller printed as residues 30–421; Used in the syringe for ITC (methods say GST-RCC1); also called full length GST-RCC1; WT GST-RCC1; source: E. coli BL21(DE3) AI or BL21(DE3), pGEX-6P, glutathione resin; not shown: GST, N-terminal, kept
T3 sequence (looked up): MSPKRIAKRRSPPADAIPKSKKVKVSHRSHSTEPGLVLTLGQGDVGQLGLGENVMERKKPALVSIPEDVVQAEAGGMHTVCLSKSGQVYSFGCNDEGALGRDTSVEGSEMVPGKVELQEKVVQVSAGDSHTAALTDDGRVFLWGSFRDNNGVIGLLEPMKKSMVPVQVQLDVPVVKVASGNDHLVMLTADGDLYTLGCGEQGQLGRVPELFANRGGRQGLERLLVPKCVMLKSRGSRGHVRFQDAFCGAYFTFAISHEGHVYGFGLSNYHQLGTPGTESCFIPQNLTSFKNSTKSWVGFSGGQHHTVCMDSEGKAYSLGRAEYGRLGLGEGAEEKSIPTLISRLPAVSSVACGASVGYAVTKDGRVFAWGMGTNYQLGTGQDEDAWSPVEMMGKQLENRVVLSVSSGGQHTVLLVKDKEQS


Columns and labels:
Settings in all cases: both partners purified
GST-ΔIBB-importin α3 = molecular target: T1, GST-ΔIBB-importin α3; experiment: pull-down; purified GST-ΔIBB-importin α3 or GST-ΔIBB-Kap60 (1 µM) pre-incubated with RCC1/yRCC1 (0.75 µM) ~60 min at 4 °C, then bound to glutathione beads, washed three times, eluted with 25 mM reduced glutathione; SDS-PAGE, Coomassie, quantified in triplicate, WT = 100%
[1] = molecular target: T2, ΔIBB-Kap60 (co-expressed with yeast …); experiment: SEC-SAXS; Kap60:yRCC1 complex at 5.0 mg ml^-1 on Superose 12 10/300 GL; 20 mM Tris-HCl pH 7.5, 150 mM NaCl, 5% glycerol, 3 mM BME; frames 710–750
[2] = molecular target: T3, GST-RCC1 (full-length human RCC1, wild …); experiment: ITC; nano-ITC, 20 °C; GST-RCC1 (300 µM) injected in 2.0 µl increments into 195 µl of ΔIBB-importin α3 or α1 (100 µM); 20 mM Tris-HCl pH 8.0, 150 mM NaCl, 5 mM BME, 0.1 mM PMSF; single set of binding sites model; triplicate

reduction of binding relative to WT RCC1 (GST-ΔIBB-importin α3) [%]	Binder	further results
~10	Δ5-RCC1 (domain or fragment, human, UniProt P18754 6-421, looked up, human RCC1 (RCC1α) with the first five residues deleted; source: E. coli BL21(DE3) AI or BL21(DE3), purified) IAKRRSPPADAIPKSKKVKVSHRSHSTEPGLVLTLGQGDVGQLGLGENVMERKKPALVSIPEDVVQAEAGGMHTVCLSKSGQVYSFGCNDEGALGRDTSVEGSEMVPGKVELQEKVVQVSAGDSHTAALTDDGRVFLWGSFRDNNGVIGLLEPMKKSMVPVQVQLDVPVVKVASGNDHLVMLTADGDLYTLGCGEQGQLGRVPELFANRGGRQGLERLLVPKCVMLKSRGSRGHVRFQDAFCGAYFTFAISHEGHVYGFGLSNYHQLGTPGTESCFIPQNLTSFKNSTKSWVGFSGGQHHTVCMDSEGKAYSLGRAEYGRLGLGEGAEEKSIPTLISRLPAVSSVACGASVGYAVTKDGRVFAWGMGTNYQLGTGQDEDAWSPVEMMGKQLENRVVLSVSSGGQHTVLLVKDKEQS	
	RCC1 (human, wild type, free protein) (natural protein, UniProt P18754 1-421, looked up, human RCC1, predominant isoform RCC1α, synthetic gene; also called free RCC1; WT RCC1; source: E. coli BL21(DE3) AI or BL21(DE3), purified) MSPKRIAKRRSPPADAIPKSKKVKVSHRSHSTEPGLVLTLGQGDVGQLGLGENVMERKKPALVSIPEDVVQAEAGGMHTVCLSKSGQVYSFGCNDEGALGRDTSVEGSEMVPGKVELQEKVVQVSAGDSHTAALTDDGRVFLWGSFRDNNGVIGLLEPMKKSMVPVQVQLDVPVVKVASGNDHLVMLTADGDLYTLGCGEQGQLGRVPELFANRGGRQGLERLLVPKCVMLKSRGSRGHVRFQDAFCGAYFTFAISHEGHVYGFGLSNYHQLGTPGTESCFIPQNLTSFKNSTKSWVGFSGGQHHTVCMDSEGKAYSLGRAEYGRLGLGEGAEEKSIPTLISRLPAVSSVACGASVGYAVTKDGRVFAWGMGTNYQLGTGQDEDAWSPVEMMGKQLENRVVLSVSSGGQHTVLLVKDKEQS	stoichiometry N (GST-ΔIBB-importin α3): 1
~10	RCC1-S11E (natural protein, human, UniProt P18754 1-421, looked up, human RCC1 (RCC1α) with the phospho-mimetic S11E; also called phospho-mimetic RCC1-S11E; source: E. coli BL21(DE3) AI or BL21(DE3), purified) MSPKRIAKRREPPADAIPKSKKVKVSHRSHSTEPGLVLTLGQGDVGQLGLGENVMERKKPALVSIPEDVVQAEAGGMHTVCLSKSGQVYSFGCNDEGALGRDTSVEGSEMVPGKVELQEKVVQVSAGDSHTAALTDDGRVFLWGSFRDNNGVIGLLEPMKKSMVPVQVQLDVPVVKVASGNDHLVMLTADGDLYTLGCGEQGQLGRVPELFANRGGRQGLERLLVPKCVMLKSRGSRGHVRFQDAFCGAYFTFAISHEGHVYGFGLSNYHQLGTPGTESCFIPQNLTSFKNSTKSWVGFSGGQHHTVCMDSEGKAYSLGRAEYGRLGLGEGAEEKSIPTLISRLPAVSSVACGASVGYAVTKDGRVFAWGMGTNYQLGTGQDEDAWSPVEMMGKQLENRVVLSVSSGGQHTVLLVKDKEQS	
~85	RCC1-R9A/K21A (natural protein, human, UniProt P18754 1-421, looked up, human RCC1 (RCC1α) with R9A and K21A; also called P2/P2′ double mutant; source: E. coli BL21(DE3) AI or BL21(DE3), purified) MSPKRIAKARSPPADAIPKSAKVKVSHRSHSTEPGLVLTLGQGDVGQLGLGENVMERKKPALVSIPEDVVQAEAGGMHTVCLSKSGQVYSFGCNDEGALGRDTSVEGSEMVPGKVELQEKVVQVSAGDSHTAALTDDGRVFLWGSFRDNNGVIGLLEPMKKSMVPVQVQLDVPVVKVASGNDHLVMLTADGDLYTLGCGEQGQLGRVPELFANRGGRQGLERLLVPKCVMLKSRGSRGHVRFQDAFCGAYFTFAISHEGHVYGFGLSNYHQLGTPGTESCFIPQNLTSFKNSTKSWVGFSGGQHHTVCMDSEGKAYSLGRAEYGRLGLGEGAEEKSIPTLISRLPAVSSVACGASVGYAVTKDGRVFAWGMGTNYQLGTGQDEDAWSPVEMMGKQLENRVVLSVSSGGQHTVLLVKDKEQS	
25	RCC1-R9A (natural protein, human, UniProt P18754 1-421, looked up, human RCC1 (RCC1α) with R9A; also called P2′ mutant; source: E. coli BL21(DE3) AI or BL21(DE3), purified) MSPKRIAKARSPPADAIPKSKKVKVSHRSHSTEPGLVLTLGQGDVGQLGLGENVMERKKPALVSIPEDVVQAEAGGMHTVCLSKSGQVYSFGCNDEGALGRDTSVEGSEMVPGKVELQEKVVQVSAGDSHTAALTDDGRVFLWGSFRDNNGVIGLLEPMKKSMVPVQVQLDVPVVKVASGNDHLVMLTADGDLYTLGCGEQGQLGRVPELFANRGGRQGLERLLVPKCVMLKSRGSRGHVRFQDAFCGAYFTFAISHEGHVYGFGLSNYHQLGTPGTESCFIPQNLTSFKNSTKSWVGFSGGQHHTVCMDSEGKAYSLGRAEYGRLGLGEGAEEKSIPTLISRLPAVSSVACGASVGYAVTKDGRVFAWGMGTNYQLGTGQDEDAWSPVEMMGKQLENRVVLSVSSGGQHTVLLVKDKEQS	
25	RCC1-K21A (natural protein, human, UniProt P18754 1-421, looked up, human RCC1 (RCC1α) with K21A; also called P2 mutant; source: E. coli BL21(DE3) AI or BL21(DE3), purified) MSPKRIAKRRSPPADAIPKSAKVKVSHRSHSTEPGLVLTLGQGDVGQLGLGENVMERKKPALVSIPEDVVQAEAGGMHTVCLSKSGQVYSFGCNDEGALGRDTSVEGSEMVPGKVELQEKVVQVSAGDSHTAALTDDGRVFLWGSFRDNNGVIGLLEPMKKSMVPVQVQLDVPVVKVASGNDHLVMLTADGDLYTLGCGEQGQLGRVPELFANRGGRQGLERLLVPKCVMLKSRGSRGHVRFQDAFCGAYFTFAISHEGHVYGFGLSNYHQLGTPGTESCFIPQNLTSFKNSTKSWVGFSGGQHHTVCMDSEGKAYSLGRAEYGRLGLGEGAEEKSIPTLISRLPAVSSVACGASVGYAVTKDGRVFAWGMGTNYQLGTGQDEDAWSPVEMMGKQLENRVVLSVSSGGQHTVLLVKDKEQS	
	yRCC1 (yeast RCC1, cleaved from GST, in the purified Kap60:yRCC1 complex) (natural protein, Saccharomyces cerevisiae (strain S288C), Saccharomyces cerevisiae RCC1 homolog Prp20p, amplified from a genomic library of strain S288C; also called Prp20p; source: E. coli BL21-AI, co-expressed with ΔIBB-Kap60, cleaved off glutathione beads with PreScission Protease, SEC; not shown: GST, N-terminal, cleaved) MVKRTVATNGDASGAHRAKKMSKTHASHIINAQEDYKHMYLSVQPLDIFCWGTGSMCELGLGPLAKNKEVKRPRLNPFLPRDEAKIISFAVGGMHTLALDEESNVWSWGCNDVGALGRDTSNAKEQLKDMDADDSSDDEDGDLNELESTPAKIPRESFPPLAEGHKVVQLAATDNMSCALFSNGEVYAWGTFRCNEGILGFYQDKIKIQKTPWKVPTFSKYNIVQLAPGKDHILFLDEEGMVFAWGNGQQNQLGRKVMERFRLKTLDPRPFGLRHVKYIASGENHCFALTKDNKLVSWGLNQFGQCGVSEDVEDGALVTKPKRLALPDNVVIRSIAAGEHHSLILSQDGDLYSCGRLDMFEVGIPKDNLPEYTYKDVHGKARAVPLPTKLNNVPKFKSVAAGSHHSVAVAQNGIAYSWGFGETYAVGLGPFEDDTEVPTRIKNTATQDHNIILVGCGGQFSVSGGVKLSDEDAEKRADEMDD	stoichiometry N [1]: 1
	ΔIBB-importin α3 (as used for ITC) (domain or fragment, Limits not given; taken from the ΔIBB-importin α3 entity of PDB 4UAE (Met + 420 residues, starting VQNTS), which fits the expected complex MW of ~91.2 kDa. A construct running to 521 is possible.) not shown	Kd [2]: 620 ± 100 nM
~60	Δ10-RCC1 (domain or fragment, human, UniProt P18754 11-421, looked up, human RCC1 (RCC1α) lacking the entire minor NLS box; source: E. coli BL21(DE3) AI or BL21(DE3), purified) SPPADAIPKSKKVKVSHRSHSTEPGLVLTLGQGDVGQLGLGENVMERKKPALVSIPEDVVQAEAGGMHTVCLSKSGQVYSFGCNDEGALGRDTSVEGSEMVPGKVELQEKVVQVSAGDSHTAALTDDGRVFLWGSFRDNNGVIGLLEPMKKSMVPVQVQLDVPVVKVASGNDHLVMLTADGDLYTLGCGEQGQLGRVPELFANRGGRQGLERLLVPKCVMLKSRGSRGHVRFQDAFCGAYFTFAISHEGHVYGFGLSNYHQLGTPGTESCFIPQNLTSFKNSTKSWVGFSGGQHHTVCMDSEGKAYSLGRAEYGRLGLGEGAEEKSIPTLISRLPAVSSVACGASVGYAVTKDGRVFAWGMGTNYQLGTGQDEDAWSPVEMMGKQLENRVVLSVSSGGQHTVLLVKDKEQS	
